According to patent publication US6410319:

Target: T1, CD20 (human) (UniProt P11836)
T1 sequence (looked up): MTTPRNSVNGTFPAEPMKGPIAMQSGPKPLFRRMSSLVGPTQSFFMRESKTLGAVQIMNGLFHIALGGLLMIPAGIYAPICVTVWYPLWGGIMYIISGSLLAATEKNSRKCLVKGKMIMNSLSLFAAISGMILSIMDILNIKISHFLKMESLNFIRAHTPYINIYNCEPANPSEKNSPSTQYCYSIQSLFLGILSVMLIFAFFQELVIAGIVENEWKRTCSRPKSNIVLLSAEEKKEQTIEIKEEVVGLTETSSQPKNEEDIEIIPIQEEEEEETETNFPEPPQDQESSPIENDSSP
Assay: cell-based or functional assay

decrease of IL-2 concentration in supernatants of Jurkat transfectants co-cultured with LCL: 60%
B1: anti-CD20 Leu-16 monoclonal antibody (antibody, from another filing, V domains shown)
VH: EVQLQQSGAELVKPGASVKMSCKASGYTFTSYNMHWVKQTPGQGLEWIGAIYPGNGDTSYNQKFKGKATLTADKSSSTAYMQLSSLTSEDSADYYCARSNYYGSSYWFFDVWGAGTTVTVSS
VL: DIVLTQSPAILSASPGEKVTMTCRASSSVNYMDWYQKKPGSSPKPWIYATSNLASGVPARFSGSGSGTSYSLTISRVEAEDAATYYCQQWSFNPPTFGGGTKLEIK
